Results published in the DeepSol protein solubility set.

Test: soluble on expression in E. coli; label from the status in PepcDB or PDB records

| Sequence | soluble on expression in E. coli |
| --- | --- |
| MARNPRTTVRRILNSAPRSLLIQSVTIVALDPTDNNHGSHQPGSNGPSNSSTQADNFETETTADEERQKEDGVEDELEDEETTGFIDEDGEIRYPVDEVGNYEIDQEAETDESFYLDTQRDSSLCDERSQLCRSLSDQNLRTTFFLITTTNSKAAILRYLHFHNVSQDSILRKLLLNDSHLTLVEVCNLCAQNIELCKCEDMQEKCQLIFGDLKKWLEVILNSFANIMMKTKTTILEGYNSSSPINKGIFKKKLLSEMADNEMWMHFESSFDGIKVHKNGNQNIWPYSLLNLDLEDVHRASPQALILAALFIGFKNPTTKIHDRLTQWILLQMDEHVFFSEGVAWKADLTCANHDDPARRIVYNQCGLRSSGSCNFCLNQETECKINDEYTTLRENLTGSCPSTMNDGLRQRNQHSHFHKHVLYMHLCPVTSNARMLPKRVHFSALFSKGKWNLFPSKSVDFSSTPSLPSRFRSLSGKASQCTGSEKALSIVVAAAFSGELGGVSSAIILSIHGLYRLCIEPQSITDETLHLKIEQISKSIEVLIVKRAPEMLNGIKVHQVLYHLARMTELYGSLFPLSTQWFEYFYHTIQRTLVPEIYNGLGMSIMRKMSALQEIKTEAAFRLHTNHQFRTEANLKMCYELGLLRRLKRISVVPTPPQYQQFCETGDVFLNVVYHDGIRYSNYCNKKTDDSNVTFIEYARVRFAKIIGMLLKENNTDLRFILKKYCNTNDHLIDISNKLYEEDVPQMHIQNWVDSVSKSSFGGRVTLTNTVVVVSADSIVGHAVVVKRNNNCVALPFSRRISLS | not soluble |
| MNSLFVDNTVFITRLKAGHIGRLVQALFEEWHGFEPWSSVDKIHAYYGRCLKDDELPLAFAAVDDSGILLGSAAVKRHDMESFPRYEYWLGDVFVLPEYRGKGIGRRLVAHCIGAARSLGIKFLYLYTPDVQIFYESFGWVVVGRHFHNGEWVTVMRLDVDKV | not soluble |
| MSLRRVFMKQIEGGICAVRGVSAYGIKPGKMGIAVIRAEGPAAGVFTRNKVVAAPVTLSRERIETEHRLSAVIANSGNANAFTGDDGFLDAMEMASMVAENLGLDPDNVAVASTGVIGRRLDVSFIKEHLPEVLEGLGSSPECSRAAAKAIMTTDRALKESAVELDCGVRIGAIAKGSGMIEPNMGTMLCFAYTDAKVPADVLDAALKIAVDKTFNMVVVDGDTSTNDMVLFTSTCKSGVKPCLDCLDDFEEGLVCVFTDLAKKMAKDGEGATKLIEARVTGAKKYEDARLVAKTIVRSPLVKSAIFGKDPNWGRVVAAAGYSGAELEQERLTLSFSGGGEEVELVKAGEISTASDLSLLKKIMANDEIIINLDLAMGEESATAWGCDLTYDYVRINAEYTTLEHHHHHH | not soluble |
| MKDTFRLENQTIYFGTERAISASPQTIWRYLTETDKLKQWFPELEIGELGVNGFWRFILPDFEETMPFTDYAEEKYLGVTWDTGIIYFDLKEQAPHQTLLVFSESLPENFTTPRHKDIAGWSIVLNRLKQVVETPDAAPEKIDFPQIENHYLEKLTNLEN | soluble |
| MGSDKIHHHHHHMKPIQLPLSVRLRDDATFANYYPGANAAALGYVERLCEAEAGWAESLIYLWGHDGVGRSHLLQAACLRFEQFEERTIYLPMADLVQYGPEIFDDLEQCELVCIDDLDVLVGKREWEEGLFHLFNRLRDTGRRLLLAASKSPRELQVKLPDLKSRLTMALIFQLHGLSDEDKLRALQLRASRRGLHLTDEVGRFILNRGSRSMNSLFDLLEQLDRASLQAQRKLTIPFLKETLGW | not soluble |
| MSEVTNELMKTIGGLAKNPNFYLMMGPHHRGQRGHHRGQARLMHLLEKYDGLSVGEIAEILDVRPSSVTSLVDKLEENDFVERIVDEIDKRITLIKLTKKGHAFLKNKKDEADDLSEEIFARLSEEEKDTLLRLLKRVSENLNDVDFGDYISKMVNDSIGRHFKFDDGDIHINI | not soluble |
| MPKLHMFYLGGNAGRSNIEVHDIQFAVCDNYREAVPALKAAWFGDADKIHIDGWQIVEWADGYDIAVSETPKTKMPSEHAPRLYFANVGGYRAGQLAEAHAFGLFAAATPAEAKQKALQTLLTDSYVQQHKDNLKDVDNLLALDRIGNFHIRLTPNPHGKPAEIGFQGYLPI | not soluble |
| MPVFKRYMRSPRLKAKHVMSTPPVTIEVGRSIAEAARLMAERGVGSLIVVDKQGLVKGILTERDIINSLASGKACAEGKVEDIMSRNPIVASPDDDLEIIIEKMRDMNIRHIPVIDEDGRPLGMISVRDIIDLGVSALKLFVE | soluble |
| MFGVTLWEMFSGGEEPWAGVPPYLILQRLEDRARLPRPPLCSRALYSLALRCWAPHPADRPSFSHLEGLLQEAGPSEACCVRDVTEPGALRMETGDPITVIEGSPDSTIWKGQNGRTFKVGSFPASAVTLADAGGLPATRPVHRGTPARGDQHPGSIDGDRKKANLWDAPPARGQRRNMPLERMKGISRSLESVLSLGPRPTGGGSSPPEIRQARAVPQGPPGLPPRPPLSSSSPQPSQPSRERLPWPKRKPPHNHPMGMPGARKAAALSGGLLSDPELQRKIMEVELSVHGVTHQECQTALGATGGDVVSAIRNLKVDQLFHLSSRSRADCWRILEHYQWDLSAASRYVLARP | soluble |
| MVVCSVQRLLLNFDFSENRSRSYHFTMDGKQIATTIPPVFLFNVLESVSGTDDRVLEHHHHHH | not soluble |
| MGSDKIHHHHHHMNPELLQKYIAGNATEAEKQRVTEWIQENPENMREYMAQRKLHDMALWRTEPVAEENSRERKHFSLRGVCMEAAKIAAVLAIVLLGTHYWTGKHQVPEDKTWQSIYVPAGQRAELMLADGTKVWLNSRSTLTFPGSFKGNIRNVKLDGEGYFAVTKNVEQPFIVETNKCNVKVLGTEFNVMAYAADSVWETSLLEGAVEILVPGSNNSGMRLEPNMMASLKGNRLVKGRIKEVDYFLWREGLLCFNDISVRDMIEKLKLYYGVDIVVNNTRILKNRYTGKFRTKDGVEHVLKVLRLNNKFTYTKDDETNVITIN | not soluble |
| MSLIDKTKLLQNFQFHLPTGYHKESLARLNFMKGKPLRDAAVLIGFVDRPEGLQVILTKRAEHLRHHPGQISFPGGKFEPEDIHLVNTALRETNEEVGIEDKHIHVFGQLPKLPTISQFNVTPFLAFISPDYKTHIDPNEVESVFEVPANHILNPNKLYSSKFELKRSSHRVFAIPYRQHFIWGMTAQIIESMQKHIISGEGHHHHHH | soluble |
| IREAIARNPQEIFQYVRLSQVKRDDKVLGYRVSPGKDPVLFESIGLQDGDMAVALNGLDLTDPNVMNTLFQSMNEMTEMSLTVERDGQQHDVYIQF | not soluble |
| MALVVEDIVKNFGEGLSETKVLKGINFEVEQGEFVILNGASGSGKTTLLTILGGLLSQTSGTVLYNDAPLFDKQHRPSDLRLEDIGFIFQSSHLVPYLKVIEQLTLVGQEAGMTKQQSSTRAIQLLKNIGLEDRLNVYPHQLSGGEKQRVAIMRAFMNNPKIILADEPTASLDADRATKVVEMIRQQIKEQQMIGIMITHDRRLFEYADRVIELEDGKITD | not soluble |
| MAEICLITGTPGSGKTLKMVSMMANDEMFKPDENGIRRKVFTNIKGLKIPHTYIETDAKKLPKSTDEQLSAHDMYEWIKKPENIGSIVIVDEAQDVWPARSAGSKIPENVQWLNTHRHQGIDIFVLTQGPKLLDQNLRTLVRKHYHIASNKMGMRTLLEWKICADDPVKMASSAFSSIYTLDKKVYDLYESAEVHT | soluble |
| MSLDSRLPAFRNLSPAARLDHIGQLLGLSHDDVSLLANAGALPMDIANGMIENVIGTFELPYAVASNFQINGRDVLVPLVVEEPSIVAAASYMAKLARANGGFTTSSSAPLMHAQVQIVGIQDPLNARLSLLRRKDEIIELANRKDQLLNSLGGGCRDIEVHTFADTPRGPMLVAHLIVDVRDAMGANTVNTMAEAVAPLMEAITGGQVRLRILSNLADLRLARAQVRITPQQLETAEFSGEAVIEGILDAYAFAAVDPYRAATHNKGIMNGIDPLIVATGNDWRAVEAGAHAYACRSGHYGSLTTWEKDNNGHLVGTLEMPMPVGLVGGATKTHPLAQLSLRILGVKTAQALAEIAVAVGLAQNLGAMRALATEGIQRGHMALHARNIAVVAGARGDEVDWVARQLVEYHDVRADRAVALLKQKRGQ | soluble |
| EPQVRESLGRDVMVVVDLSGSMAEPDFTSRTGEKISRLDAAKEVLTEFVQSRKGDRLGLVLFGDAAFVQTPFTADQKVWLELLNQTDVAMAGQSTHLGDAIGLAIKVFEQSDKSRGALEQDQNREKVAIVLTDGNDTGSFVEPIDAAKVAKAKGVRVHVIAMGDPETIGETALDMDTIHRIAKESGGEAFEALNRDELSAAYDEIGKLEPQLYESTTYRPKQSLHH | not soluble |
| MSLDTGVTSVMFVERSLNEIRFWSRIMKEHSFFLRLGFRCEDTQLIEEANQFYRLFEHIEQIAHSYTNETDPEQIKRFNAEVQQAATNIWGFKRKILGLILTCKLPGQNNFPLLVDHTSREADYFRKRLIQLNEGKLDALPDAIIKENVFFLRIMADHAKFIGHLLDPSERKLVDTARNFSNDFDELMYQAIDLESMKPQSQTAPLLDQFLDQNRVSVASLRDFKKTARDLIEQCKIKSIIHPLLADHVFREADRFLEIIDMYDVHLTNIQSQPREGHHHHHH | soluble |
| MARTDIRPIVKLRSTAGTGYTYTTRKNRRNDPDRLILRKYDPILRRHVDFREER | soluble |
| MNINIVTIGKLKEKYLKQGIEEYTKRLSAYAKIDIIELPDEKAPENLSDQDMKIIKDKEGDRILSKISPDAHVIALAIEGKMKTSEELADTIDKLATYGKSKVTFVIGGSLGLSDTVMKRADEKLSFSKMTFPHQLMRLILVEQIYRAFRINRGEPYHKLEHHHHHH | soluble |
| MGSLDHGAKEQLQSEEFGERKQFEDKELGAKKDEALHVLEGLITRSKTKLLNQAITTLLQKIEGSLKLEACPTTLVVIQAV | not soluble |
| MRALRRGKGITLKQLAKALNKNISRGEAKNTESQIGNWERGERNPNYLEVKKLADYFDVSIDYLVGRYNNDQVDLAKAMITSSKLTYNDTPLDNNDKYEILQLISGYLHARGRRSTGDLININHQESLDLFNNQNDF | not soluble |
| MAHHHHHHMDVEHFIASLPPRTSVCGLHSVLSHASVHSLDSLGSTETPMLLTAQNFSFMSSGGDGDDNIGNAASTDSRATGAHGSGSNGSSHSGHHPTSPSPCGANASPFISKRLKYVIRSVALDHEECGGDSLSSRIASSYIGSSMPATNSQTRRRSERHVTFALEPEVLDARPRFSAYSRTVELLEQICLDKQSPWNALSLLQSALEERRGQLAQLRGQWDGALTGEAPTLTSSVTPKPCTITTSSGGGAVCHSRDKTTVPSPKSFPSATTSTLMTKGKSSRYSKVKPKACTTCSAM | not soluble |
| MSGKEEFQTIKERAKRKLERDMGADLLAALNDPKTVEVMLNADGKVWHERLGEPMRYICDMRPSQSQAIIETVAGFHGKEVTRHSPILEGEFPLDGSRFAGQLPPVVAAPTFAIRKRAVAIFTLEQYVEAGIMTREQYEVIKSAVAAHRNILVIGGTGSGKTTLVNAIINEMVAFNPSERVVIIEDTGEIQCAAENAVQYHTSIDVSMTLLLKTTLRMRPDRILVGEVRGPEALDLLMAWNTGHEGGAATLHANNPKAGLSRLAMLISMHPDSPKPIEPLIGEAVHVVVHIARTPSGRRVQEILEVLGYENGQYITKTL | not soluble |
| MGSDKIHHHHHHMRLNPERPLLSGSCTQYLDWGLPIAMDAVGPGEARRILDRYGADRVLLVGPPGVGKSTVVRSYAEDSASREGLEFVDLSEARSLEDLDTDSTYAFLHIYAPLVRAEDLAFIARRGEGYDWTLPSRLAYLTRPGVRGLVFIDEITNVALPEVQTILFSMVLDKRVAYNRLSSGVEVVAAGNSPRDSPVSQWPPPPLLDRFRLLIRVKPPDLEEWVSWMNSVGRPWDRRVAAVLKVKPVLMYRPPEDEEDKFPTPRSWSQLAWELAKTGAHGDEAVRIAAMVVGRRAAEEARQFLQPDPASLDLSTFPRLDERERLTLLSVEAGRLASQDVVELCRTLEKVGSYGAHYAVWLLMLSGVDTVEAARSCSYVEDLLSRLSSYLG | not soluble |
